Measurements published in US20220041746A1 (Sanofi, published 2022).
Several values for one entry are separate records, joined by “and”; a condition that tells them apart may be missing. Equal entries are not always repeated. Where two headings read alike, the source gives them in different places. Values belong to the binder of their own block, whether it stands above or below them.

Key:
[1] = biological target: T1, human CD38 expressed on the cell surface (human, UniProt P28907 1-300); test: flow cytometry on preB::300.19 cells, apparent KD
T1 construct: whole, on cells; also called hCD38-expressing cells; huCD38
Description: (§1) The recombinant cell line was described by J. Deckket et al. 2014 Clin. Cancer Res 20:4574-4583. […] Antibody binding was evaluated after centrifugation and resuspension of cells by adding 200 μl/well PBS 1% BSA and read using Guava® easyCyte™ 8HT Flow Cytometry System. Apparent KD and EC50 values were estimated using BIOST®T-BINDING and BIOST®T-SPEED software, respectively.

[2] = biological target: T2, recombinant human CD38 (SPR of Example 4) (human, UniProt P28907 45-300, limits assumed); test: SPR, target binding with the other two targets in saturation
Description: (§2) Surface regenerate was conducted by injecting 10 mM Glycine-HCl pH 2.5 for 60 sec at 30 μl/min. […] Equilibrium dissociation constant (KD) was calculated using association rate constant (kₒₙ) and dissociation rate constant (koff).
(§3) Next, each antigen binding domain of the CD38SB19×CD28ₛᵤₚ×CD3mid specific binding protein was evaluated by SPR for the ability to bind cognate antigen with and without the other two antigen binding domains in saturation.

[3] = biological target: T1, human CD38 expressed on the cell surface; test: flow cytometry on 300.19 huCD38 cells (PréB hCD38)
Description: as §1

[4] = biological target: T2, recombinant human CD38 (SPR of Example …); test: SPR, target binding without other targets present
Description: as §2, §3

[5] = biological target: T2, recombinant human CD38 (SPR of Example …); test: SPR
[6] = biological target: T3, cynomolgus monkey CD38 expressed on the cell surface (cynomolgus monkey, UniProt Q5VAN0 1-301); test: flow cytometry on 300.19 cynoCD38 cells (PréB cCD38)
T3 construct: whole, on cells; also called cCD38-expressing cells
Description: as §1

[7] = biological target: T1, human CD38 expressed on the cell surface; test: flow cytometry on SU-DHL-8 cells (SUDHL8)
[8] = biological target: T4, CD38 isoform A (SEQ ID NO:1) (human, UniProt P28907 45-300); test: ELISA, plate coated with the CD38 isoform
T4 construct: also called huCD38 isoform A
Description: (§4) 96-well plates were coated with either isoform at 0.5 μg/well in PBS and 100 μL/well of antibodies were added to the plate. The plate was incubated at 37° C. for 1 h and washed five times with PBS containing 0.05% Tween-20 (PBS-T). […] Following incubation at 37° C. for 1 h in darkness, plates were washed with PBS-T five times. Antibody binding w as visualized by adding TMB-H2O2 buffer and read at a wavelength of 450 nm. EC50 values were estimated using BIOST@T-SPEED software.

[9] = biological target: T5, CD38 isoform E (SEQ ID NO:105) (human, UniProt P28907 45-195, limits assumed); test: ELISA, plate coated with the CD38 isoform
T5 construct: also called huCD38 isoform E
Description: as §4

[10] = biological target: T3, cynomolgus monkey CD38 expressed on the …; test: flow cytometry on preB::300.19 cells, apparent KD
Description: as §1, with “Clin” for “Clin.”, “μL/well” for “μl/well”, “easvCyte™” for “easyCyte™”, “BIOST@T-BINDING” for “BIOST®T-BINDING”, “BIOST@T-SPEED” for “BIOST®T-SPEED”

[11] = biological target: T1, human CD38 expressed on the cell surface; test: flow cytometry on preB::300.19 cells, apparent KD; remark: listed apart in the source
Description: as §1, with “Clin” for “Clin.”, “μL/well” for “μl/well”, “easvCyte™” for “easyCyte™”, “BIOST@T-BINDING” for “BIOST®T-BINDING”, “BIOST@T-SPEED” for “BIOST®T-SPEED”

[12] = biological target: T3, cynomolgus monkey CD38 expressed on the …; test: flow cytometry on preB::300.19 cells, apparent KD; remark: listed apart in the source
Description: as §1, with “Clin” for “Clin.”, “μL/well” for “μl/well”, “easvCyte™” for “easyCyte™”, “BIOST@T-BINDING” for “BIOST®T-BINDING”, “BIOST@T-SPEED” for “BIOST®T-SPEED”

[13] = biological target: T1, human CD38 expressed on the cell surface; test: flow cytometry on preB::300.19 cells, apparent KD; remark: listed apart in the source
Description: as §1, with “Clin” for “Clin.”, “μL/well” for “μl/well”, “easvCyte™” for “easyCyte™”, “BIOST@T-BINDING” for “BIOST®T-BINDING”, “BIOST@T-SPEED” for “BIOST®T-SPEED”

[14] = biological target: T3, cynomolgus monkey CD38 expressed on the …; test: flow cytometry on PreB cynoCD38-expressing cells
cCD38-his (SEQ ID NO: 4) [15] = biological target: T6, cCD38-his (SEQ ID NO: 4) (cynomolgus monkey, UniProt Q5VAN0 46-301); test: SPR, mAb captured via anti-human Fc, soluble CD38-his injected
T6 construct: His-tagged soluble protein; also called cyno CD38-histag; cynoCD38::Histag
Description: (§5) The binding properties of the anti-huCD38 mabs were evaluated using a BIAcore 2000 (BIAcore Inc., Uppsala, Ni). […] The surface was regenerated between injections using 30 μL of 50 mM NaOH-1 M NaCl. Individual sensorgrams wore analyzed using BIAsimulation software.

hCD38-his (SEQ ID NO: 2) [16] = biological target: T7, hCD38-his (SEQ ID NO: 2) (human, UniProt P28907 45-300); test: as above
T7 construct: His-tagged soluble protein derived from isoform A; also called human CD38-histag; hCD38::Histag
Description: as §5

cCD38-his (SEQ ID NO: 4) [17] = biological target: T6, cCD38-his (SEQ ID NO: 4); test: as above; remark: listed apart in the source
Description: as §5

hCD38-his (SEQ ID NO: 2) [18] = biological target: T7, hCD38-his (SEQ ID NO: 2); test: as above; remark: listed apart in the source
Description: as §5

[19] = biological target: T1, human CD38 expressed on the cell surface; test: flow cytometry on MOLP-8 multiple myeloma cells [Cont.]

- Kd [1]: 4 nM
- Kd [2]: 2.42 nM
- EC50 [3]: 4 nM and 0.603 µg/mL
- Kd [4]: 1.75 nM
B1: CD38SB19×CD28sup×CD3mid trispecific binding protein (other)
VH 1: QVQLVQSGAEVAKPGTSVKLSCKASGYTFTDYWMQWVKQRPGQGLEWIGTIYPGDGDTGYAQKFQGKATLTADKSSKTVYMHLSSLASEDSAVYYCARGDYYGSNSLDYWGQGTSVTVSS
VL 1: DIVMTQSHLSMSTSLGDPVSITCKASQDVSTVVAWYQQKPGQSPRRLIYSASYRYIGVPDRFTGSGAGTDFTFTISSVQAEDLAVYYCQQHYSPPYTFGGGTKLEIK
VH 2: QVQLVQSGAEVVKPGASVKVSCKASGYTFTSYYIHWVRQAPGQGLEWIGSIYPGNVNTNYAQKFQGRATLTVDTSISTAYMELSRLRSDDTAVYYCTRSHYGLDWNFDVWGKGTTVTVSS
VL 2: DIQMTQSPSSLSASVGDRVTITCQASQNIYVWLNWYQQKPGKAPKLLIYKASNLHTGVPSRFSGSGSGTDFTLTISSLQPEDIATYYCQQGQTYPYTFGQGTKLEIK
VH 3: QVQLVESGGGVVQPGRSLRLSCAASGFTFTKAWMHWVRQAPGKQLEWVAQIKDKSNSYATYYADSVKGRFTISRDDSKNTLYLQMNSLRAEDTAVYYCRGVYYALSPFDYWGQGTLVTVSS
VL 3: DIVMTQTPLSLSVTPGQPASISCKSSQSLVHNNANTYLSWYLQKPGQSPQSLIYKVSNRFSGVPDRFSGSGSGTDFTLKISRVEAEDVGVYYCGQGTQYPFTFGSGTKVEIK

- Kd [5]: 1 nM
- binding result [6]: binds
B2: CD38HHY1370×CD28sup×CD3mid (other)
VH 1: QVQLVESGGGVVQPGRSLRLSCAASGFTFSSYGMHWVRQAPGKGLEWVAVIWYDGSNKYYADSVKGRFTISGDNSKNTLYLQMNSLRAEDTAVYYCARMFRGAFDYWGQGTLVTVSS
VL 1: AIQMTQSPSSLSASVGDRVTITCRASQGIRNDLGWYQQKPGKAPKLLIYAASSLQSGVPSRFSGSGSGTDFTLTISGLQPEDSATYYCLQDYIYYPTFGQGTKVEIK
VH 2: QVQLVQSGAEVVKPGASVKVSCKASGYTFTSYYIHWVRQAPGQGLEWIGSIYPGNVNTNYAQKFQGRATLTVDTSISTAYMELSRLRSDDTAVYYCTRSHYGLDWNFDVWGKGTTVTVSS
VL 2: DIQMTQSPSSLSASVGDRVTITCQASQNIYVWLNWYQQKPGKAPKLLIYKASNLHTGVPSRFSGSGSGTDFTLTISSLQPEDIATYYCQQGQTYPYTFGQGTKLEIK
VH 3: QVQLVESGGGVVQPGRSLRLSCAASGFTFTKAWMHWVRQAPGKQLEWVAQIKDKSNSYATYYADSVKGRFTISRDDSKNTLYLQMNSLRAEDTAVYYCRGVYYALSPFDYWGQGTLVTVSS
VL 3: DIVMTQTPLSLSVTPGQPASISCKSSQSLVHNNANTYLSWYLQKPGQSPQSLIYKVSNRFSGVPDRFSGSGSGTDFTLKISRVEAEDVGVYYCGQGTQYPFTFGSGTKVEIK

- EC50 [7]: 0.24 nM and 0.0366 µg/mL
- EC50 [8]: 0.11 nM
- EC50 [9]: 0.08 nM
- Kd [10]: 0.22 nM
- Kd [11]: 0.28 nM
- Kd [12]: 0.22 nM
- Kd [13]: 0.28 nM
- EC50 [14]: 0.033 µg/mL and 0.15 nM
- Kd (cCD38-his (SEQ ID NO: 4) [15]): 0.39 nM
- koff (cCD38-his (SEQ ID NO: 4) [15]): 9.85e-05 s⁻¹
- Kd (hCD38-his (SEQ ID NO: 2) [16]): 0.336 nM
- koff (hCD38-his (SEQ ID NO: 2) [16]): 0.000266 s⁻¹
- Kd (cCD38-his (SEQ ID NO: 4) [17]): 0.39 nM
- koff (cCD38-his (SEQ ID NO: 4) [17]): 9.85e-05 s⁻¹
- Kd (hCD38-his (SEQ ID NO: 2) [18]): 0.336 nM
- koff (hCD38-his (SEQ ID NO: 2) [18]): 0.000266 s⁻¹
- EC50 [19]: 0.98 nM and 0.148 µg/mL
B3: mAb1 (antibody, human IgG1, kappa, V domains shown)
VH: QVQLQQSGAELVRSGASVKMSCKASGYTFTSFNMHWVKETPGQGLEWIGYIYPGNGGTNYNQKFKGKATLTADTSSSTAYMQISSLTSEDSAVYFCARTGGLRRAYFTYWGQGTLVTVSS
VL: DIVLTQSPASLAVSLGQRATISCRASESVDSYGNGFMHWYQQKPGQPPKLLIYLASNLESGVPARFSGSGSRTDFTLTIDPVEADDAATYYCQQNKEDPWTFGGGTKLEIKR
notes: also called antiCD38_C2-CD38-1
